Measurements from patent publication US20110015138A1 (GENUS ONCOLOGY, published 2011).
Ends that are not written are not given here.

Experiments:
GST-IκBα = target: T1, GST-IκBα (UniProt P25963 1-317); experiment: GST pull-down of purified p65(1-180), immunoblot anti-p65
T1 construct: Bought (Millipore, Billerica, Mass.); not shown: glutathione S-transferase (GST) fusion moiety
T1 sequence (looked up): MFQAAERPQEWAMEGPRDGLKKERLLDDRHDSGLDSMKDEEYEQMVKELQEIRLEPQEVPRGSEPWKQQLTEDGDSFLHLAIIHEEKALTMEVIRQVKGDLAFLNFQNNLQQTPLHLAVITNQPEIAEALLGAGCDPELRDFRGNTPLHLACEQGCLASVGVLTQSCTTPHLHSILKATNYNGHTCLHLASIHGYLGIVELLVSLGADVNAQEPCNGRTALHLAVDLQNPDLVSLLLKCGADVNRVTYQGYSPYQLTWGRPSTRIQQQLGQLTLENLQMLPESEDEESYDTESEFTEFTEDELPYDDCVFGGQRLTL

[1] = target: T2, GST-STAT3 (N-terminal; amino acids 1-257) (UniProt P40763 1-257); experiment: GST-STAT3 deletion mutants on glutathione beads incubated with purified MUC1-CD, immunoblot anti-MUC1-C
T2 construct: range 1-257; The legend names it GST-MUC1-CD, but the text and the end of the legend speak of STAT3 deletion mutants / GST-STAT3 fusion proteins; also called dimerization domain; printed in the legend as GST-MUC1-CD (N-terminal: amino acids 1-257); not shown: glutathione S-transferase (GST) fusion moiety
Description: (§1) FIGS. 9A-D: MUC1-C binds directly to the STAT3 DBD. (FIG. 9A) Lysates from ZR-75-1 (left) and MCF-7 (right) cells were subjected to immunoprecipitation with anti-STAT3 or a control IgG. The precipitates were immunoblotted with the indicated antibodies. (FIG. 9B) Lysates from ZR-75-1 cells were incubated with GST and GST-MUC1-CD bound to glutathione beads. The adsorbates were immunoblotted with anti-STAT3 Input of the GST and GST-MUC1-CD proteins was assessed by Coomassie blue staining. (FIG. 9C) Amino acid sequence of the MUC1 cytoplasmic domain is shown with the indicated phosphorylation and binding sites. GST, GST-MUC1-CD, GST-MUC1-CD (1-45) and GST-MUC1-CD (46-72) bound to glutathione beads were incubated with purified recombinant STAT3. The adsorbates were immunoblotted with anti-STAT3. Input of the GST and GST-MUC1-CD fusion proteins was assessed by Coomassie blue staining. (FIG. 9D) Structure of STAT3. GST, GST-STAT3 (full length; amino acids 1-770), […], […] and […] bound to glutathione beads were incubated with purified MUC1-CD. Adsorbates were immunoblotted with anti-MUC1-C. Input of the GST and GST-STAT3 fusion proteins was assessed by Coomassie blue staining.
(§2) MUC1-C directly interacts with STAT3. […]

[2] = target: T3, GST-STAT3 (C-terminal; amino acids 514-770) (UniProt P40763 514-770); experiment: as above
T3 construct: range 514-770; The legend names it GST-MUC1-CD, but the text and the end of the legend speak of STAT3 deletion mutants / GST-STAT3 fusion proteins; also called printed in the legend as GST-MUC1-CD (C-terminal); not shown: glutathione S-transferase (GST) fusion moiety
Description: as §1, §2

[3] = target: T4, STAT3 (in cells / cell lysates) (human, UniProt P40763 2-770); experiment: co-immunoprecipitation with anti-STAT3 from ZR-75-1 and MCF-7 cell lysates, immunoblot anti-MUC1-C
T4 construct: Endogenous protein of the cell lines
Description: as §1, §2

[4] = target: T5, NF-κB p65 (in cells / cell lysates) (human, UniProt Q04206 1-551); experiment: co-immunoprecipitation with anti-p65 from ZR-75-1, MCF-7 and U-937/MUC1-C cell lysates, immunoblot anti-MUC1-C
T5 construct: Endogenous protein of the cell lines
Description: Immunoprecipitation and immunoblotting. Lysates from sub-confluent cells were prepared as described (Ren et al., 2004). Soluble proteins were precipitated with anti-NF-κB p65 (Santa Cruz Biotechnology, Santa Cruz, Calif.). […] Immune complexes were detected with horseradish peroxidase-conjugated secondary antibodies (GE Healthcare Biosciences, Piscataway, N.J.) and enhanced chemiluminescence (GE Healthcare).
MUC1-C associates with NF-κB p65. To determine whether MUC1 interacts with NF-κB, anti-NF-κB p65 precipitates from ZR-75-1 breast cancer cells were immunoblotted with an antibody against the MUC1-C subunit cytoplasmic domain. […] Similar findings were obtained with lysates from MCF-7 breast cancer cells, which also overexpress endogenous MUC1 (FIG. 1B). To determine whether the MUC1-N subunit is necessary for the association, studies were performed on U-937 cells that stably express exogenous MUC1-C and not MUC1-N (Agata et al., 2008).

[5] = target: purified recombinant STAT3 (UniProt P40763 1-770, limits assumed); experiment: GST pull-down of purified recombinant STAT3, immunoblot anti-STAT3
Description: as §1, §2

[6] = target: T6, purified recombinant NF-κB p65 (UniProt Q04206 1-551, limits assumed); experiment: GST pull-down of purified recombinant p65, immunoblot anti-p65
T6 construct: also called purified NF-κB p65

purified recombinant STAT3, sequence (P40763 whole entry): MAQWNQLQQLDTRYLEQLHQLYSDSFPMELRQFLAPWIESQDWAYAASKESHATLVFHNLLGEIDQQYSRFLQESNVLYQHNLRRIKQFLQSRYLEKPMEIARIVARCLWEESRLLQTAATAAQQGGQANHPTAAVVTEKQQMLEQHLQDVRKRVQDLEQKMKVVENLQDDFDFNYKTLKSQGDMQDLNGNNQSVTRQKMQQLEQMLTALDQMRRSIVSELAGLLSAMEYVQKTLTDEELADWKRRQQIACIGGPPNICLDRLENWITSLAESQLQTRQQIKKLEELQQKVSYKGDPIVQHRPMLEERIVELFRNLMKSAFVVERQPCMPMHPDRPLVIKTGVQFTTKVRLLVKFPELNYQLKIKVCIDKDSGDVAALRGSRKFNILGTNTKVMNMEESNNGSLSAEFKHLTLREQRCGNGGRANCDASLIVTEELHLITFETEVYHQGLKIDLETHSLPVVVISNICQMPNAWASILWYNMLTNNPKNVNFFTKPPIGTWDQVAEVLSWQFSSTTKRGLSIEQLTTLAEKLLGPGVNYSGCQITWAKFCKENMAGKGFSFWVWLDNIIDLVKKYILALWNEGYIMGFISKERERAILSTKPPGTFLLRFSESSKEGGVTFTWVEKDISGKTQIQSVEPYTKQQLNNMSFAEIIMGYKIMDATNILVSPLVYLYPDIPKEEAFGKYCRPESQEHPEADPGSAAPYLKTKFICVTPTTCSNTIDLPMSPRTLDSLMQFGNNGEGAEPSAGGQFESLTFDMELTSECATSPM
T2 sequence (P40763 1-257): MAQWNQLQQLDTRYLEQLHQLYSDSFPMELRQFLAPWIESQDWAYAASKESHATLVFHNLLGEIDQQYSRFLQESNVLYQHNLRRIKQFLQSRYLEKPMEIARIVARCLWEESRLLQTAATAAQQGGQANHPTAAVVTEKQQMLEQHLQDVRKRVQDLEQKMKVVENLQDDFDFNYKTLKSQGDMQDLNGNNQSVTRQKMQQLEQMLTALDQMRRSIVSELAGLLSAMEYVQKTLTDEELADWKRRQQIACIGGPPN
T3 sequence (P40763 514-770): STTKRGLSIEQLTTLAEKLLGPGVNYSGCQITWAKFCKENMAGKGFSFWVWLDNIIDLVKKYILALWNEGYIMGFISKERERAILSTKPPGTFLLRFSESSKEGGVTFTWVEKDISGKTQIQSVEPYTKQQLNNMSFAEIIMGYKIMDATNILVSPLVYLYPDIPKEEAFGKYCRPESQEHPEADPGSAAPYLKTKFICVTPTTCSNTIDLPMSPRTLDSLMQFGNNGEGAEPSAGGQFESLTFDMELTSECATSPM
T4 sequence (P40763 2-770 limits assumed): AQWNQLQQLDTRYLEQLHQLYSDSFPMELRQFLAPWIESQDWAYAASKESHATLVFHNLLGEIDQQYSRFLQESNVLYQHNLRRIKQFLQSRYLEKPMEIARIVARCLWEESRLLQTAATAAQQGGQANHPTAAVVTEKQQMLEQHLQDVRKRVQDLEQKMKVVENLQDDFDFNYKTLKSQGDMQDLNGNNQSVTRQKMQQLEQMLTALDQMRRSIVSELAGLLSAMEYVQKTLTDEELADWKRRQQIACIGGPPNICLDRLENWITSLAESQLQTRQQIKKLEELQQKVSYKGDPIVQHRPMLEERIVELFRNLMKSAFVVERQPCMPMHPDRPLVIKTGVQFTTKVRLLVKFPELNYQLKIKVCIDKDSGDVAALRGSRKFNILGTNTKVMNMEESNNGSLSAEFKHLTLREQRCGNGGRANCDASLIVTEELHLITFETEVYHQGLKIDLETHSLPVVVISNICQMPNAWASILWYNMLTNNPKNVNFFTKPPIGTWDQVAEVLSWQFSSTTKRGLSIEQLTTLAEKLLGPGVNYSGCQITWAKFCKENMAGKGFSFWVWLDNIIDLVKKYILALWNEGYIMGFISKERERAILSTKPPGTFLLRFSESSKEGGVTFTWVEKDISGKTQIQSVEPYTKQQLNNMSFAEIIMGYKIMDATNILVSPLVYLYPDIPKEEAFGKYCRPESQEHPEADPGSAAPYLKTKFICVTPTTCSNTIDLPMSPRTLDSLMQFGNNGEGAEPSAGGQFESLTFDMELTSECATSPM

B1: p65(1-180) (other, UniProt Q04206 1-180, looked up)
chain: MDELFPLIFPAEPAQASGPYVEIIEQPKQRGMRFRYKCEGRSAGSIPGERSTDTTKTHPTIKINGYTGPGTVRISLVTKDPPHRPHPHELVGKDCRDGFYEAELCPDRCIHSFQNLGIQCVKKRDLEQAISQRIQTNNNPFQVPIEEQRGDYDLNAVRLCFQVTVRDPSGRPLRLPPVLS
notes: range 1-180; Purified deletion mutant; also called purified p65(1-180)
binding result (GST-IκBα): no binding

B2: MUC1-CD (purified, GST moiety removed with thrombin) (other)
chain: CQCRRKNYGQLDIFPARDTYHPMSEYPTYHTHGRYVPPSSTDRSPYEKVSAGNGGSSLSYTNPAVAATSANL
notes: also called purified MUC1-CD; MUC1-C cytoplasmic domain
binding result [1]: no binding
binding result [2]: no binding

B3: MUC1 C-terminal subunit (MUC1-C), in cells (receptor)
chain: SVVVQLTLAFREGTINVHDVETQFNQYKTEAASRYNLTISDVSVSDVPFPFSAQSGAGVPGWGIALLVLVCVLVALAIVYLIALAVCQCRRKNYGQLDIFPARDTYHPMSEYPTYHTHGRYVPPSSTDRSPYEKVSAGNGGSSLSYTNPAVAATSANL
notes: Endogenous MUC1-C in lysates of ZR-75-1, MCF-7 and MCF-10A cells, or exogenous MUC1-C in U-937 cells and exogenous MUC1 in HeLa cells
binding result [3]: binds
binding result [4]: binds

B4: GST-MUC1-CD(1-45) (other)
chain: CQCRRKNYGQLDIFPARDTYHPMSEYPTYHTHGRYVPPSSTDRSP
modifications: cysteine pairing not given here; also: GST fusion
notes: Deletion mutant of GST-MUC1-CD; residues counted on the 72 amino acid cytoplasmic domain; not shown: glutathione S-transferase (GST) fusion moiety
binding result [5]: no binding
binding result [6]: no binding
